# Experimental data taken from patent US20210071221.
# Changes are numbered by the printed parent chain.
# T1: Acceptor substrate 2 (SEQ ID NO: 5)
# T1 chain: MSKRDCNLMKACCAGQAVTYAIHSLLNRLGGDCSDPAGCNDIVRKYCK
# T2: Acceptor substrate 1 (SEQ ID NO: 4)
# T2 chain: T1 chain with C33S
# T3: Acceptor substrate 6 (SEQ ID NO: 9)
# T3 chain: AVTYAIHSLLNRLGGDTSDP
# B1: C-terminal 6X-His tagged recombinant nucleotide dependent glycosyltransferase protein (GT-CTH) (protein)
# chain: MGYSENFIANDWFNVEVFNKNKYTLTNQENKDVTELWLQILKGLKFPNELKETVSYSKNLKELSLKTHAEVSVCIIAKNEQDSIRKCINSIYEFSDEIIFIDTGSIDSTKKIVKEIASEKVKIFDYTWQDDFSDARNYSIQKASKEWILIIDADEYVSSDELIKLRLLIDMLDRFKFKDSLRVSCAIYQLDNVITHGQSRLFRNNNKIKYYGLIHEELRNNKGLDPIFNVESEITFFHDGYKEILRKEKCERNIRLLAKMLEKEPDNVRWAYLYCRDSFSINSNIDFEKILLPFLIKNMDESISCENILLTNYTHLILFLITKKYIIDGKSSLASKCIEVLEKMLPNSSDVTFYKFLNKQHSLYEQQFEFLKEVIQFRKNNEYDQYSQIGCNLLHYDLLISGLLFDVKSYDYSYQYFLKLDLANYFSELEIPDEYKMLINKYRENESLEHHHHHH
# Columns and labels:
# [1] = biological target: T1, Acceptor substrate 2 (SEQ ID NO: 5)
# [2] = biological target: T2, Acceptor substrate 1 (SEQ ID NO: 4)
# [3] = biological target: T3, Acceptor substrate 6 (SEQ ID NO: 9)
protein,measurement,setting,value
B1,"in vitro glycosylation of the acceptor peptide, LC-ESI-Q/TOF",[1],observed monoisotopic mass of di-glycosylated product as 5515.53 Da (Expected monoisotopic mass 5515.41 Da)
same,"in vitro glycosylation of the acceptor peptide, LC-ESI-Q/TOF",[2],observed average mass of di-glycosylated product as 5503.47 Da (Expected average mass 5503.00 Da)
same,"in vitro glycosylation of the acceptor peptide, MALDI-TOF",[3],observed (M+H)^+ of di-glycosylated product as 2424.65 Da (Expected (M+H)^+ 2424.07 Da) and observed (M+H)^+ of mono-glycosylated product as 2262.57 Da
